Target: HIV-1 envelop trimer (BG505 DS-SOSIP) (HIV-1 group M subtype A, isolate BG505, UniProt Q2N0S6, stabilised)

B1: VHH9 row 4 (VHH9 group, Nb10-Nb13) (VHH)
VHH: QVKLEESGGGSVQAGGSLRLSCTAPGFTSNSCGMAWYRQAPGKEREFVSSISTDGTTSYADSVKGRFTISKDKAKDTVYLQMNSLKPEDTAMYSCKTYGPYCYFDVWGAGTTVTVSA
B1: binds.

Source: publication doi:10.1101/2021.03.04.433768 (bioRxiv, 2021)
